What all share (test): ELISA, peptide coated, antibody 10 µg/ml
For orientation: ELISA stands for enzyme-linked immunosorbent assay.

Test [1] has as its target M15 (influenza A virus).
The target of test [2] is M16 (influenza A virus).
For test [3], the target named is M2 peptide (extracellular 23-amino-acid M2 peptide) (influenza A virus).
In test [4] the target is NM15 (influenza A virus).
Test [5] deals with NM16 (influenza A virus).
For test [6], the target named is NM17 (influenza A virus).

Here are results for one molecule from patent US20050170334A1.

B1: C40G1 (antibody, V domains shown)
VH: QLQLQESGPGLVKPSETLSLTCTVSGGSISSSFYYCGWIRQPPGKGLEWIGSIYYRGSTYYNPSLKSRVTISVDTSKNQFSLKLSSVTAADTAVYYCARRVTMVRGVKGDYFDYWGQGTLVTVSS
VL: DIQMTQSPSSLSASVGDRVTITCRASQGISSWLAWYQQKPEKVPKSLIYAASSLQSGVPSRFSGSGSGTDFTLTISSLQPEDFATYYCQQYNYYPLTFGGGTKVEIKR
For the molecule B1, the ELISA (OD450) in test [1] turned out to be 2.73 OD450; in test [2], 2.64 OD450; in test [3], 2.56 OD450; in test [4], 2.51 OD450; in test [5], 2.37 OD450; in test [6] it was 2.41 OD450.
